This passage reports activity results from patent publication US6027884.

The subject of the first data set is Alu I restriction endonuclease. Nature of the data set: cleavage_in_vitro. The note with it: first strand cleavage rate constant; 13 uM (AT)2 competitor.
Regarding “ATATATATAGCTATATATAT (double strand) [(AT)4 AGCT(AT)4]”, the activity is 0.0093 min⁻¹.

In the case of “ATATATAGCTATATAT (double strand) [(AT)3 AGCT(AT)3]”, the activity was 0.0115 min⁻¹.

For “AAAAAGCTTTTT (double strand) [(AA)2 AGCT(TT)2]”, the activity stood at 0.0063 min⁻¹.

Consider “AAAAAAAAAGCTTTTTTTTT (double strand) [(AA)4 AGCT(TT)4]”, for which the activity was 0.0031 min⁻¹.

In turn, “AAAAAAAGCTTTTTTT (double strand) [(AA)3 AGCT(TT)3]” registered an activity of 0.0039 min⁻¹.

Regarding “AAATATAGCTATATTT (double strand) [(AA)(AT)2 AGCT(AT)2 TT]”, the activity worked out at 0.0077 min⁻¹.

Still in this data set, the particulars now being: first strand cleavage rate constant; 13 uM (AT)2 competitor, 95 nM labeled duplex.
In turn, “ATATAGCTATAT (double strand) [(AT)2 AGCT(AT)2]” registered an activity of 0.019 min⁻¹.
